One assay concerns the target HuB6 (human). Description: SPR; HuB6 and human FcγRs; who was immobilised not given; n = 3.
The target in a further assay is HuB6. Description: flow cytometry on cells. Particulars: Ab 10 µg/ml (highest point of the titration); antigen transfected into Expi293 cells; parent: est. 17000; read off a plot.
A further assay concerns the target urelumab. The assay is described as follows: flow cytometry on cells. The note with it: Ab 10 µg/ml (highest point of the titration); antigen transfected into Expi293 cells; parent: est. 17000; read off a plot.
The target in a further assay is utomilumab. Description: flow cytometry on cells. Particulars: Ab 10 µg/ml (highest point of the titration); antigen transfected into Expi293 cells; parent: est. 14000; read off a plot.
The target of a further assay is T1, cynomolgus 4-1BB-mFc (Macaca fascicularis, UniProt A9YYE7).
T1 construct: cynomolgus monkey 4-1BB, UniProt A9YYE7, extracellular domain; also called Cy4-1BB; cynomolgus monkey 4-1BB; source: Expi293F, transfected, purified (MabSelect PrismA); not shown: Fc (mouse), C-terminal, kept
The assay is described as follows: ELISA; indirect ELISA; plates coated with 4-1BB-mFc (1 μg/mL mouse, 350 ng/mL cynomolgus) in carbonate buffer; serially diluted antibodies, room temperature 2 h; HRP goat anti-human Fc. Particulars: both partners purified. (ELISA stands for enzyme-linked immunosorbent assay.)

A further assay has as its target T2, mouse 4-1BB-ECD-mFc (Mus musculus, UniProt P20334).
T2 construct: mouse 4-1BB, UniProt P20334, extracellular domain; also called Mu4-1BB; murine 4-1BB; source: Expi293F, transfected, purified (MabSelect PrismA); not shown: Fc (mouse), C-terminal, kept
Described as above. Particulars: both partners purified.

The target of another assay is T3, Hu4-1BB-His (Homo sapiens, UniProt Q07011).
T3 construct: human 4-1BB (CD137, TNFRSF9), His-tagged, bought; No catalogue number is printed; also called human 4-1BB; source: bought: Acro biosystems
Description: BLI; Octet Red96, 25 °C; antibody loaded on AHC biosensors; Hu4-1BB-His 200-12.5 nM in 1 × PBS; 500 s association, 30 min dissociation. The note with it: both partners purified. Background: In BLI a coated tip is dipped into the sample, and binding shifts an interference pattern.

A further assay addresses T4, human 4-1BB ECD (Homo sapiens, UniProt Q07011).
T4 construct: human 4-1BB (CD137, TNFRSF9), extracellular domain, coupled to the CM5 chip for SPR; also called CD137; TNFRSF9
Description: SPR; Biacore T200, 25 °C; human 4-1BB ECD amine-coupled on a CM5 chip to 300 RU; antibody from 80 μg/mL in two-fold dilutions injected at 30 μL/min; 1:1 Langmuir model. The note with it: both partners purified. In general terms: In SPR one partner is held on a chip, and binding of the other changes the refractive index at the surface.

Chain of HuB6 (human) (heavy, as listed by the source, chain 1 of 2): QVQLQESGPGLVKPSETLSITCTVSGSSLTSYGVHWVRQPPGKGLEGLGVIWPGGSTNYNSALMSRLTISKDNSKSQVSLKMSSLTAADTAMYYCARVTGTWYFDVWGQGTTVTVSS
Chain of HuB6 (human) (light, as listed by the source, chain 2 of 2): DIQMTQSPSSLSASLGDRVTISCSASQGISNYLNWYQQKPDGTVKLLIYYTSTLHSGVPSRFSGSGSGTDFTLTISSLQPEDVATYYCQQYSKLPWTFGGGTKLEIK
T2 sequence (P20334 24-187): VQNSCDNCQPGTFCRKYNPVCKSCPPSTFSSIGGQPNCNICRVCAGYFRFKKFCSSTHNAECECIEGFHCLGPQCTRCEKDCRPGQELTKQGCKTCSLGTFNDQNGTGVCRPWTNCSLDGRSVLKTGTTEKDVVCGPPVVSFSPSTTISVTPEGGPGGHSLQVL
T4 sequence (Q07011 24-186): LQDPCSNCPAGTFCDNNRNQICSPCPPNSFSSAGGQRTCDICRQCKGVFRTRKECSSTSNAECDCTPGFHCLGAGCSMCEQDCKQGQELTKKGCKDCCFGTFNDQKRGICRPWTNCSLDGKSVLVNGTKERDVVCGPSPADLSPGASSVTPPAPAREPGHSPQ

As for “human FcγRIA (from UniProt P12314 16-374) (receptor)”, in the assay with HuB6 (human), the Kd (usually a measure of binding affinity in units of concentration) turned out to be 8.86 nM; the dissociation rate constant (koff) (as a rule, the rate constant with which the complex falls apart) was found to be 0.0045 s⁻¹; the kon (as a rule, the second-order rate constant of association) was found to be 531000 M⁻¹ s⁻¹.
Turning to “wild-type (WT) human 4-1BB antigen on Expi293F cells (from UniProt Q07011) I132”, the response with HuB6 worked out at 20000 Mean FITC; with urelumab, 17000 Mean FITC; with utomilumab it was 3900 Mean FITC.
Take “wild-type (WT) human 4-1BB antigen on Expi293F cells (from UniProt Q07011) M101”: the response with HuB6 was found to be 19000 Mean FITC; with urelumab, 17000 Mean FITC; with utomilumab, 2600 Mean FITC.
The like results for “wild-type (WT) human 4-1BB antigen on Expi293F cells (from UniProt Q07011) N42” were, in that order, 15000 Mean FITC, 900 Mean FITC and 13000 Mean FITC.

B1: utomilumab (antibody, V domains shown)
VH: EVQLVQSGAEVKKPGESLRISCKGSGYSFSTYWISWVRQMPGKGLEWMGKIYPGDSYTNYSPSFQGQVTISADKSISTAYLQWSSLKASDTAMYYCARGYGIFDYWGQGTLVTVSS
VL: SYELTQPPSVSVSPGQTASITCSGDNIGDQYAHWYQQKPGQSPVLVIYQDKNRPSGIPERFSGSNSGNTATLTISGTQAMDEADYYCATYTGFGSLAVFGGGTKLTVL
notes: IgG2; IgG2 mAb; also called PF-05082566; utomilumab-IgG2; source: Expi293F, transfected, purified (MabSelect PrismA)
As to B1, the EC50 (in general, the concentration at which the effect is half-maximal) with cynomolgus 4-1BB-mFc was 0.038 nM. For the same molecule, in the assay with mouse 4-1BB-ECD-mFc, the binding result is given as “no binding”.

B2: urelumab (antibody, V domains shown)
VH: QVQLQQWGAGLLKPSETLSLTCAVYGGSFSGYYWSWIRQSPEKGLEWIGEINHGGYVTYNPSLESRVTISVDTSKNQFSLKLSSVTAADTAVYYCARDYGPGNYDWYFDLWGRGTLVTVSS
VL: EIVLTQSPATLSLSPGERATLSCRASQSVSSYLAWYQQKPGQAPRLLIYDASNRATGIPARFSGSGSGTDFTLTISSLEPEDFAVYYCQQRSNWPPALTFGGGTKVEIK
notes: IgG4; IgG4 mAb; also called BMS-663513; urelumab-IgG4; source: Expi293F, transfected, purified (MabSelect PrismA)
B2: the Kd in the assay with Hu4-1BB-His was 5.76 ± 0.85 nM; with human 4-1BB ECD, 5.34 ± 0.49 nM. In addition, in the assay with mouse 4-1BB-ECD-mFc, the binding result was “no binding”.

For the origin of these results see paper PMC9461191 (Journal of Translational Medicine, 2022).
